This is an account of results in patent US20220411506A1 (SUZHOU GALAXY BIOPHARMA, published 2022).

Assay [1] deals with T1, hCTLA4-hFc (human, UniProt P16410 36-161).
T1 construct: also called hCTLA4-Fc protein; biotinylated hCTLA4-hFc; not shown: hFc (human Fc)
T1 sequence (looked up): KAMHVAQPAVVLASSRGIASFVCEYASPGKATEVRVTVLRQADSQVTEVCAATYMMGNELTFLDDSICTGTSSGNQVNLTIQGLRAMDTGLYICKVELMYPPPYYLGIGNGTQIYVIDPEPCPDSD
In words: competition ELISA: biotin-labeled CTLA4-hFc pre-incubated with graded chimeric antibody, captured on coated Ipilimumab (2 ug/mL). The procedure: The plates were washed three times with PBST and incubated with 1/1000 diluted HRP-labeled streptavidin (BD, catalog #554066) for 1 hour at room temperature. The plates were washed and developed by adding TMB.

Assay [2] concerns the target T2, hCTLA4-mFc fusion protein (human, UniProt P16410 36-161).
T2 construct: Captured on AMC (anti-mouse Fc capture) sensors in the Octet assay; not shown: mFc (mouse Fc)
T2 sequence (looked up): T1 sequence (looked up)
The assay can be described thus: BLI (Octet-96), CTLA4-mFc on AMC sensor, antibody 3-200 nM, 1:1 global fit. Here is the method:
The kinetic constants (kassoc and kdissoc) of binding of the antibody and the antigen were measured using the biomolecular interaction system Octet-96 (Pall Life Sciences, S-000959), and the equilibrium binding constant KD was further calculated. […] Specifically, AMC sensors were pre-wet in the buffer (PBS containing 0.02% Tween-20 and 0.1% BSA) for 10 minutes and then equilibrated in CTLA4-mFc sample buffer for 5 minutes to such that the CTLA4-mFc proteins were coupled to the surfaces of sensors. The CTLA4-mFc-coupled AMC sensors were first equilibrated in the buffer for 2 minutes and then incubated for 5 minutes in buffer containing different concentrations of antibody (3-200 nM) to measure the binding of antibodies to the CTLA4-mFc protein. Finally, the antigen and antibody-bound sensors were repositioned in the sample buffer and waited for 10 minutes to measure the dissociation of antibodies from the CTLA4-mFc proteins. The measured data were globally fitted using a 1:1 model to obtain kinetic constants of binding and dissociation. On this basis, an equilibrium binding constant KD was further obtained.

Assay [3] has as its target T3, human CTLA4 on the cell surface (human, UniProt P16410 36-223).
T3 construct: whole, on cells; also called CTLA4 on the surface of human T cells
T3 sequence (looked up): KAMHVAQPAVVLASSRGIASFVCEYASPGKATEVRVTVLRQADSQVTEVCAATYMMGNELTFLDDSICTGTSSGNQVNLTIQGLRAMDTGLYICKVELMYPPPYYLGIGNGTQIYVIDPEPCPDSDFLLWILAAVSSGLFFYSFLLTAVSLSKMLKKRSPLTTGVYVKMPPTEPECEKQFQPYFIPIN
In words: FACS on 293T-hCTLA4 cells. The procedure: The purified antibodies to be detected were added to wells at a certain concentration (50 μL/well) and incubated for 1 hour at 4° C. The cells were washed three times with buffer and were incubated for 0.5 hour at 4° C. with PE-labeled fluorescent secondary antibodies. The cells were washed three times with FACS buffer and re-suspended to 200 μL/well. The fluorescence signals were detected using Attune Nxt flow cytometer (Thermo Fisher).

For assay [4], the target named is T4, monkey CTLA4-Fc (SinoBiological, catalog #90213-C02H) (monkey, UniProt G7PL88 36-161, Probably biotin-labeled (detected with HRP-streptavidin). Fused to an Fc that is not given in letters.).
T4 construct: Detected with streptavidin, so read as biotin-labeled like the mouse protein
T4 sequence: T1 sequence (looked up) with S14N, I18T, L106M
In words: ELISA, coated antibody, monkey CTLA4-Fc. Here is the method:
(§1) Species cross reactions of the purified antibodies were detected using ELISA. The quantified purified antibodies were coated on 96-well plates (Corning, catalog #9018) followed by incubation overnight at 4° C., and were blocked with 5% skimmed milk powder (Oxoid, catalog #LP0031B) for 2 hours at 37° C. The biotin-labeled mouse CTLA4-His (SinoBiological, catalog #50503-M08H) or monkey CTLA4-Fc (SinoBiological, catalog #90213-C02H) was added to the plates and incubated for 1 hour at room temperature. The plates were washed three times with PBST and incubated with 1/1000 diluted HRP-labeled streptavidin (BD, catalog #554066) for 1 hour at room temperature. The plates were washed and developed by adding TMB.

In assay [5] the target is T1, hCTLA4-hFc. The assay can be described thus: blocking ELISA, coated antibody, biotin hCTLA4-hFc, competitor hCD80-Fc. The procedure:
(§2) The purified antibodies were coated on 96-well plates (Corning, catalog #9018) followed by incubation overnight at 4° C., and were blocked with 5% skimmed milk powder (Oxoid, catalog #LP0031B) for 2 hours at 37° C. […] The plates were washed with PBST and incubated with HRP-labeled streptavidin (BD, catalog #554066) for 1 hour at room temperature. The plates were washed and developed by adding TMB.

For assay [6], the target named is T1, hCTLA4-hFc. In words: ELISA, coated hCTLA4-hFc. Here is the method: ELISA was used for detecting the binding of purified antibodies to CTLA4-hFc. […] The plates were washed with PBST (PBS containing 0.05% of Tween-20) three times, and were blocked with 5% skimmed milk powder (Oxoid, catalog #LP0031B) for 2 hours at 37° C. The plates were washed three times with PBST and were incubated for 1 hour at room temperature with antibodies to be detected. The plates were washed three times and incubated for 1 hour at room temperature with 1/5000 diluted HRP-labeled goat anti-mouse IgG secondary antibodies (Invitrogen, catalog #31432). The plates were washed with PBST and were developed by adding TMB.

The target of assay [7] is T1, hCTLA4-hFc. In words: blocking ELISA, coated antibody, biotin hCTLA4-hFc, competitor hCD86-Fc. Here is the method:
as §2

In assay [8] the target is T5, biotin-labeled mouse CTLA4-His (SinoBiological, catalog #50503-M08H) (mouse, UniProt P09793 36-162, biotin-labeled (site not stated)).
T5 construct: not shown: His tag
The assay can be described thus: ELISA, coated antibody, biotin mouse CTLA4-His. Here is the method:
as §1

Residue numbers refer to the chain shown, from its start.

B1: human-mouse CTLA4 chimeric antibody 9B8-H2-B6-G5 (antibody, V domains shown)
VH: QVQLQQPGSELVRPGASVKLSCKASGYTFTNYWVHWVKQRPGQGLEWIGNIFPGSDTSNYDEKFISKATLTVDTSSSAAYMQLNSLTSEDSAVYYCARLAYFTNYGGAMDYWGRGTSVTVSS
VL: DIVLTQSPASLVVSLGQRATISCRASKSVSTSAYNYMHWYQQKPGQPPKLLIYLASNLESGVPARFSGSGSGTDFTLNVHPVEEEDAATYYCQLSRELPYTFGGGTKLEIK
Turning to B1, the “IC50 (read off the curve)” value in the assay with hCTLA4-hFc [1] is around 200 ng/mL. The same molecule displayed a Kd in assay [2] of 0.0868 nM.

B2: murine anti-CTLA4 monoclonal antibody 9B8-H2-B6-G5 (antibody, V domains shown)
VH: B1 VH
VL: B1 VL
notes: Mouse hybridoma antibody purified on Protein A
Consider B2, for which the EC50 in assay [3] was 1.08 nM; with hCTLA4-hFc [6], 0.025 nM. Further, the “ELISA (OD)” value in assay [4] turned out to be 0.37 OD; in assay [8], 0.06 OD. Further, the IC50 in the assay with hCTLA4-hFc [5] came to 0.00292 µg/mL; in the assay with hCTLA4-hFc [7], 1.08 µg/mL.

B3: human-mouse CTLA4 chimeric antibody 4H9-G5-D5-B1 (antibody, V domains shown)
VH: EVKLDETGGGLVQPGRSMKLSCVVSGFTFSDNWMNWVRQSPEKGLEWVAQIRNKPYNFETYYSDSVKGRFTISRDDSKSTVYLQMNNLRAEDMGVYYCTGGFTYWGQGTLVTVSA
VL: DIQMTQSPASLSASVGETVTITCGASENIYGGLNWYQRKQGKSPQLLIYGATNLAEGMSSRFSGSGSGRQYSLKISSLHPDDVATYYCQNVLSSPWTFGGGTKLEIK
For B3, the “IC50 (read off the curve)” value in the assay with hCTLA4-hFc [1] is around 30 ng/mL. Besides, the equilibrium dissociation constant (Kd) in assay [2] was below 0.001 nM.

B4: murine anti-CTLA4 monoclonal antibody 4H9-G5-D5-B1 (antibody, V domains shown)
VH: B3 VH
VL: B3 VL
notes: as for B2
As to B4, the EC50 in assay [3] is 1.35 nM; with hCTLA4-hFc [6], 0.023 nM. The “ELISA (OD)” value in assay [4] stood at 2.79 OD; in assay [8] it was 0.05 OD. For the same molecule, the IC50 with hCTLA4-hFc [5] is 0.0691 µg/mL; with hCTLA4-hFc [7], 7.24 µg/mL.

B5: murine anti-CTLA4 monoclonal antibody 19C5-G11-A7-G5 (antibody, V domains shown)
VH: EVQLQQSGTVLARPGASVKMSCKASGYSFTSYWIHWVKQRPGQGLEWIGAFYPGNSDTNYNQNFKGKAKLTAVTSASTAYMELSSLTNEDSAVYYCTYYYRSSYAMDNWGQGTSVTVSS
VL: DIQMNQSPSSLSASLGDTITITCHASQNINDWLSWYQQKPGNIPKLLIYKASNLHTGVPSRFSGSGSGTGFTLTISSLQPEDIATYYCQQGQSYPLTFGSGTKLEIK
notes: as for B2
As for B5, the “ELISA (OD)” value in assay [4] turned out to be 0.64 OD; in assay [8], 0.06 OD. Also, the IC50 was determined as 0.0357 µg/mL with hCTLA4-hFc [5] and 3.15 µg/mL with hCTLA4-hFc [7]. Moreover, in the assay with hCTLA4-hFc [6], the EC50 stood at 0.036 nM.
